Measured values: patent publication US20210205365A1, “Chimeric Growth Factor Receptors” (Instil Bio (UK) Ltd., priority 2018, published 2021)

Columns and labels:
primary human T-cells [1] = assay: Eltrombopag and IL-2 on CrGFR transduced primary human T-cells, up to 21 days; type: cell-based; conditions: after 21 days, x3 donors, Eltrombopag
Description: (§1) FIGS. 6A-6B—Analysis of Eltrombopag and IL-2 on primary human T-cells from Donor 1. Primary human T-cells from donor 1 were transduced with the WT TpoR or variant CrGFR and incubated in the presence of IL2 or Eltrombopag. Cells were removed at time points up to 21 days and the proportion of cells expressing the receptor assessed using PE conjugated anti-CD110 antibodies and a MACSQuant analyser.
as §1, with “FIGS. 7A-7B—Analysis” for “FIGS. 6A-6B—Analysis”, “Donor 2.” for “Donor 1.”, “donor 2” for “donor 1”
as §1, with “FIGS. 8A-8B—Analysis” for “FIGS. 6A-6B—Analysis”, “Donor 3.” for “Donor 1.”, “donor 3” for “donor 1”
FIGS. 9A-9B—Selection of optimal CrGFRs for next round of analysis. Flow cytometry plots showing expression of CrGFRs in ×3 donor primary human T-cells after 21 days incubation in Eltrombopag. The receptors TpoR.CD40, TpoR.IL2rγ, TpoR.ITAM1, TpoR.A60, TpoR.LMP1-cyto and TpoR.TpoR-cyto.LMP1-cyto were chosen for future comparison with the wt TpoR.
Peripheral blood mononuclear cells were isolated from normal healthy donors before activation for 24 hours with T-cell activation and expansion beads (Invitrogen) according to the manufacturer's instructions before addition of lentiviral supernatants.
Following expansion cells were washed excessively to remove any exogenous IL2 and plated into 96-well U-bottom plates. Cells were supplemented with IL2 (Proleukin) or Eltrombopag (Stratech Scientific, Suffolk, UK). At various time points thereafter cells were either stained with a 1:400 dilution of eFlor-450 fixable viability dye (eBioscience, UK) and counted directly from the wells using a MACSQuant Cytometer, or were stained with DRAQ7 viability dye plus phycoerythrin conjugated anti-CD110 antibodies (Miltenyi Biotec, UK) and analysed using a MACSQuant cytomter. Cell viability and/or transduction level was then analysed using MACSQuantify software (Miltenyi Biotec, UK).
Next Applicants took these receptors and expressed them in primary human T-cells and exposed these cells to IL-2 or Eltrombopag. Three donor primary human T-cell populations were isolated from buffy coats and transduced with the indicated lentiviral constructs in the presence of CD3/CD28 Dynabeads. Following expansion the cells were incubated with IL-2 or Eltrombopag. Applicants saw an increase in expansion/survival of T-cells with some of the receptors in some of the donors. […] This narrowed Applicants' panel of receptors to analyse further to: TpoR.CD40, TpOR.IL2rγ, TpoR.ITAM1, TpOR.LMP1-cyt, and TpoR.TpoR-cyt-LMP1-cyt.

phospho-STAT5 = assay: Induction of pSTAT5 in CrGFR expressing T-cells; type: cell-based, human; conditions: T-cells transduced with wt TpoR, TpoR.CD40 or TpoR.IL2rγ
Description: FIG. 15—Induction of pSTAT by chimeric recombinant growth factor receptors. Primary human T-cells were isolated and transduced with the indicated CrGFR. Cells were enriched for CrGFR expression using Miltenyi MACS technology and expanded via polyclonal stimulation. The enriched cells were stimulated for 4 h with either media alone (RPMI), IL2, IL12, Tpo or Eltrombopag (Elt) before methanol fixation and intracellular staining with antibodies towards phospho-STAT5.
Finally, Applicants validated the signalling potential of the novel CrGFR by conducting phospho STAT analysis upon treatment of CrGFR expressing T-cells with media, cytokine or drug. To this end T-cells from 4 donors were transduced with either the wt TpoR, TpoR. CD40 or TpoR.IL2rγ, enriched for CrGFR expression using paramagnetic bead selection protocols and then expanded using polyclonal stimulation. The cells were treated for four hours with media alone (RPMI), IL-2, Tpo or Eltrombopag (Elt) before methanol fixation, permeabilization and analysis using pSTAT specific antibodies. STAT molecules are the key drivers of cell signalling upon cytokine activation of cells, pSTAT5 in particular is key to IL-2 activity.

primary human T-cells [2] = assay: Eltrombopag and IL-2 on CrGFR sorted (CD110+) primary human T-cells, up to 7 days; type: cell-based; conditions: second donor (FIG. 12)
Description: (§2) FIG. 10—Analysis of Eltrombopag and IL-2 on CrGFR sorted primary human T-cells from Donor 4. Primary human T-cells from donor 4 were transduced with the WT TpoR or variant CrGFR, and enriched for expression by Miltenyi MACS technology selected for and incubated in the presence of IL2 or Eltrombopag. Cells were removed at time points up to 7 days and the number of cells expressing the receptor assessed using PE conjugated anti-CD110 antibodies, DRAQ7 viability dye and a MACSQuant analyser.
as §2, with “11—Analysis” for “10—Analysis”, “5.” for “4.”, “5” for “4”
as §2, with “12—Analysis” for “10—Analysis”, “6.” for “4.”, “6” for “4”
Paramagnetic bead sorts were conducted as per the manufacturers' instructions using either anti-PE microbeads (Miltenyi Biotec or StemCell Technologies), or T-cell isolation beads (17951: StemCell Technologies).
Next Applicants repeated the experiment but sorted the CrGFR+ cells using CD110+ selection by paramagnetic bead selection using the receptors identified from the first round of selections (FIGS. 10, 11 and 12). Applicants observed enhanced survival of T-cells engrafted with the majority of the CrGFR in all three donors. In particular Applicants saw expansion of WT-TpoR, TpOR.CD40, TpOR.IL2rγ and TpoR.LMP1-cyto cells in the second donor (FIG. 12) above that with media alone.

ovarian TIL = assay: CrGFR in ovarian TIL mixed with patient matched tumour cells; type: cell-based, human; conditions: all three donors
Description: FIG. 14—Analysis of Chimeric recombinant Growth Factor Receptors in Ovarian TIL. Tumour Infiltrating Lymphocytes from ×3 ovarian TIL were transduced with the WT TpoR or indicated variant CrGFR and incubated in the presence of patient matched tumour cells with either Eltrombopag or no growth factors. Cells were analysed and counted at days 4 and 7 and the number of cells expressing the receptor assessed using PE conjugated anti-CD110 antibodies, DRAQ7 viability dye and a MACSQuant analyser. Graphs show counts between days 4 and 7 when recovery of TIL occurs after an initial contraction in numbers driven by tumour regulatory factors and/or activation induced cell death.
Applicants evaluated further the effect of the CrGFR in ovarian TIL. Three ovarian TIL populations were engineered to express either the WT, or TpoR.CD40, TpoR.IL2rγ or TpoR.LMP1-Cyt variant receptors and mixed with patient matched tumour cells in the presence or absence of Eltrombopag. Counts of total and CD110+ cells were made after 4 and 7 days. Applicants observed specific expansion of the CrGFR+ cells in the presence of tumour between days 4 and 7 in donors 2 and 3 with all the receptors except the TpOR.LMP1.cyt.

B1: TpoR.IL2rγ: SEQ ID NO: 6; TpoR fused to IL2rγ cytoplasmic domain (protein)
chain: MPSWALFMVTSCLLLAPQNLAQVSSQDVSLLASDSEPLKCFSRTFEDLTCFWDEEEAAPSGTYQLLYAYPREKPRACPLSSQSMPHFGTRYVCQFPDQEEVRLFFPLHLWVKNVFLNQTRTQRVLFVDSVGLPAPPSIIKAMGGSQPGELQISWEEPAPEISDFLRYELRYGPRDPKNSTGPTVIQLIATETCCPALQRPHSASALDQSPCAQPTMPWQDGPKQTSPSREASALTAEGGSCLISGLQPGNSYWLQLRSEPDGISLGGSWGSWSLPVTVDLPGDAVALGLQCFTLDLKNVTCQWQQQDHASSQGFFYHSRARCCPRDRYPIWENCEEEEKTNPGLQTPQFSRCHFKSRNDSIIHILVEVTTAPGTVHSYLGSPFWIHQAVRLPTPNLHWREISSGHLELEWQHPSSWAAQETCYQLRYTGEGHQDWKVLEPPLGARGGTLELRPRSRYRLQLRARLNGPTYQGPWSSWSDPTRVETATETAWISLVTALHLVLGLSAVLGLLLLRWQFPAHYRRLRHALWPSLPDLHRVLGQYLRDTAALSPPKATVSDTCEEVEPSLLEILPKSSERTPLPLCSSQAQMDYRRLQPSCLGTMPLSVCPPMAESGSCCTTHIANHSYLPLSYWQQPERTMPRIPTLKNLEDLVTEYHGNFSAWSGVSKGLAESLQPDYSERLCLVSEIPPKGGALGEGPGASPCNQHSPYWAPPCYTLKPET
modifications: TpoR.IL2rgamma; MISC_FEATURE (1)..(491): TpoR Extracellular Domain; MISC_FEATURE (492)..(513): TpoR Transmembrane Domain; MISC_FEATURE (514)..(635): TpoR Cytoplasmic Domain; MISC_FEATURE (636)..(721): IL2r-gamma Cytoplasmic Domain
Which “proportion of viable cells with a distinct population of CD110+ cells” value (primary human T-cells [1]) does the source give for B1 here?
The value was “good proportion of viable cells with a distinct population of CD110+ cells”.

And the “STAT5 activation of the CrGFR when stimulated with Eltrombopag” value (phospho-STAT5)?
Its value is “clear activation of the correct STAT5 activation pathway”.

What about the “expansion of CrGFR cells above that with media alone” value (primary human T-cells [2]) of the same molecule?
Its value is “expansion”.

And the “activity compared with the WT receptor” value (ovarian TIL)?
The value was “superior to that of the WT receptor”.
